Laboratory results from patent US6475775B1, “PARG, a GTPase activating protein which interacts with PTPL1” (Ludwig Institute for Cancer Research, priority 1997, dated 2002).
Values belong to the molecule of their own block, whether it stands above or below them.

Tests used:
GST-PDZ 4-5 of PTPL1 = target: T1, GST-PDZ 4-5 of PTPL1 (Homo sapiens, UniProt Q12923); assay: Binding of GST-PDZ fusion proteins to C-terminal PARG peptide; conditions: peptide on Affigel 15 beads; 50 nM fusion protein; 4° C., 2 h; α-GST immunoblot
T1 construct: GST-PDZ 4-5, residues 1762-1960; made in house; host or cells: E. coli
T1 sequence (Q12923 1762-1960 isoform Q12923-3): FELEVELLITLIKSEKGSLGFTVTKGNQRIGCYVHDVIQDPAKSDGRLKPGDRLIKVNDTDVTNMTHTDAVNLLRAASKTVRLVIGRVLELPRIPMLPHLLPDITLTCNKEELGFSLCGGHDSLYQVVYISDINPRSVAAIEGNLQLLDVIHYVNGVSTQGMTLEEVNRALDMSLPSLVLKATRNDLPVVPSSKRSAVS
Excerpt: (§1) To identify proteins that bind to the PDZ domains of PTPL1, regions of PTPL1 cDNA corresponding to the various PDZ domains were produced by polymerase chain reaction and subcloned into the GST fusion protein expression vector pGEX1λT (Pharmacia): GST-PDZ 1. amino acid residues 1066-1166 of PTPL1; GST-PDZ 2-3. residues 1340-1579; GST-PDZ 3, residues 1469-1579; GST-PDZ 4, residues 1762-1864; GST-PDZ 4-5, residues 1762-1960 and GST-PDZ 5, residues 1856-1960 (FIG. 1A). Domains and motifs indicated in FIG. 1A are: L, leucine zipper motif; Band 4.1, a domain of 300 amino acid residues with homology to the Band 4.1 superfamily; P, PDZ domain; PTP, protein tyrosine phosphatase catalytic domain; GST, glutathione S-transferase. The different expression vector constructs were transformed into E. coli. Glutathione S-transferase (GST) fusion proteins were produced and purified as described by Ridley and Hall (Cell 70: 389-399, 1992) and then subjected to sodium dodecyl sulfate (SDS)-gel electrophoresis.
(§2) It has been shown that PDZ domains interact with the C-terminal ends of short peptides and that a valine residue at the absolute C-terminal end is important for binding (Kim et al., 1995; Komau et al., 1995; Saras et al., in preparation). […]

[1] = target: T2, PDZ 4 of PTPL1 (GST-PDZ 4) (Homo sapiens, UniProt Q12923); assay: as above; conditions: peptide on Affigel 15 beads; 50 nM fusion protein; 4° C., 2 h; α-GST immunoblot
T2 construct: GST-PDZ 4, residues 1762-1864; made in house; host or cells: E. coli
T2 sequence (Q12923 1762-1864 isoform Q12923-3): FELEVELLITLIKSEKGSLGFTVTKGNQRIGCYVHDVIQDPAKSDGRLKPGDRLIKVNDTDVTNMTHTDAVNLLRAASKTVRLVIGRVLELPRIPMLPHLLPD
Excerpt: as §1, §2

Cdc42 = target: T3, Cdc42 (Homo sapiens, UniProt P60953); assay: GAP activity of PARG GAP domain (GTP hydrolysis, filter binding); assay type: biochemical; conditions: Cdc42 preloaded with γ-32P-GTP, 30° C.
T3 construct: GST (N, cleaved yes); made in house; host or cells: E. coli
Excerpt: (§3) In order to determine the GAP activity of PARG on proteins of the Rho family, the GAP domain of PARG was produced as a GST fusion protein in E. coli (FIG. 5A). Briefly, a DNA fragment coding for the GAP domain, i.e., amino acid residues 658-898, of PARG was produced by polymerase chain reaction and subcloned into pGEX1λT and referred to as GST-GAP. pGEX2T-based expression vectors containing RhoA, Rac1 and Cdc42 (G25K isoform) cDNAs were obtained from Dr. A. Hall (MRC Laboratory for Molecular Cell Biology and Department of Biochemistry, University College London, UK). These different expression vector constructs were transformed into E. coli. The GST fusion proteins were produced and purified essentially as described above in Example 1. Recombinant Rho, Rac and Cdc42 proteins were subjected to thrombin cleavage (Ridley and Hall, 1992).
(§4) Recombinant Rho, Rac and Cdc42 were preloaded with γ-^32P-GTP and incubated for various time periods in the presence of the GST-GAP fusion protein or, as control, GST protein. Thereafter, the radioactivity bound to the GTPase was determined as a measurement of the GTP hydrolysis activity. Briefly, 200 nM aliquots of recombinant Rho, Rac and Cdc42 were incubated at 30° C. with 10 μCi γ-^32P-GTP in 20 mM Tris-HCI, pH 7.5, 25 mM NaCl, 4 mM EDTA, 0.1 mM dithiothreitol, and the nucleotide exchange was stopped after 10 min by the addition of 17 mM MgCl2. Proteins (100 nM GST, 1 nM or 20 nM of GST-GAP fusion protein) were added to the reaction mixture and aliquots of 5 μl were withdrawn and collected on nitrocellulose filters (HA, Millipore, Bedford, Mass.) at 3 min intervals. The filters were washed with cold buffer (50 mM Tris-HCI pH 7.5, 50 mM NaCl, 5 mM MgCl2), dried and subjected to scintillation counting. The amount of protein-bound radioactivity is expressed as the percentage of the total input.

Rac = target: T4, Rac (Homo sapiens, UniProt P63000); assay: as above; assay type: biochemical; conditions: Rac preloaded with γ-32P-GTP, 30° C.
T4 construct: GST (N, cleaved yes); made in house; host or cells: E. coli
Excerpt: as §3, §4

Rho = target: T5, Rho (Homo sapiens, UniProt P61586); assay: as above; assay type: biochemical; conditions: 1 nM GST-GAP; Rho preloaded with γ-32P-GTP; 30° C.
T5 construct: GST (N, cleaved yes); made in house; host or cells: E. coli
Excerpt: as §3, §4

T3 sequence (P60953 1-191 isoform P60953-1): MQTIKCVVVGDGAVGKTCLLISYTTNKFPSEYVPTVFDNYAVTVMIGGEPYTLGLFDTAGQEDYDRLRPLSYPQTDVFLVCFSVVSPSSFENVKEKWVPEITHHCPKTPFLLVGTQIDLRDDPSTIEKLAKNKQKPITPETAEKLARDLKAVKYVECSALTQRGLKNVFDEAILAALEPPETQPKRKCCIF
T5 sequence (P61586 whole entry): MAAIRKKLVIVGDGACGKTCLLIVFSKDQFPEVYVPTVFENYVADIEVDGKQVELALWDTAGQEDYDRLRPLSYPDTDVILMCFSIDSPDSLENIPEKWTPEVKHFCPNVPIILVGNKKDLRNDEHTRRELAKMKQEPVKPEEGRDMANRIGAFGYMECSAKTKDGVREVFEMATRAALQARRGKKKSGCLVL

binding of GST-PDZ 4-5 to the peptide (GST-PDZ 4-5 of PTPL1): bound | binding of GST-PDZ 4 to the peptide [1]: bound
Molecule: PQFV (listed as Homo sapiens) [synthetic peptide, last 4 C-terminal amino acid residues of PARG]

GAP activity on Cdc42 (Cdc42; 1 nM GST-GAP): no GAP activity | GAP activity on Cdc42 (Cdc42; 20 nM GST-GAP): active | GAP activity on Rac (Rac; 1 nM GST-GAP): no GAP activity | GAP activity on Rac (Rac; 20 nM GST-GAP): active | GAP activity on Rho (Rho): strong GAP activity
B1: GST-GAP fusion protein: GAP domain, amino acid residues 658-898 of PARG, produced as a GST fusion protein in E. coli (protein)
chain: GHQKLPGKIHLFGAEFTLVAKKEPDGIPFILKICASEIENRALCLQGIYRVCGNKIKTEKLCLALENGMHLVDISEFSSHDICDVLKLYLRQLPEPFILFRLYKEFIDLAKEIQHVNEEQETKKNSLEDKKWPNMCIEINRILLKSKDLLRQLPASNFNSLHFLIVHLKRVVDHAEENKMNSKNLGVIFGPSLIRPRPQTAPITISSLAEYSNQARLVEFLITYSQKIFDGSLQPQDVMCS
modifications: left off: a dimerising Fc or GST
notes: GAP domain, amino acid residues 658-898 of PARG, produced as a GST fusion protein in E. coli
